Data taken from US20240109967A1 (University of Pennsylvania, published 2024).

T1: recombinant human CD80-Fc chimera (carrier free, BioLegend) (human, UniProt P33681 35-242)
T1 construct: Commercial protein; also called huCD80-Fc; huCD80; not shown: Fc of the commercial chimera, not described
T1 sequence (looked up): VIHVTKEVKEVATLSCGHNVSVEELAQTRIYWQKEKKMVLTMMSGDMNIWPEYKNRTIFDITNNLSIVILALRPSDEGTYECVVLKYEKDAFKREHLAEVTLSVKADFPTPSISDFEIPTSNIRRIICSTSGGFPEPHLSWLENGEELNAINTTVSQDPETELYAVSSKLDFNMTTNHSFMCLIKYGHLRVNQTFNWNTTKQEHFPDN

T2: recombinant human CD86-Fc chimera (carrier free, BioLegend) (human, UniProt P42081 24-247)
T2 construct: Commercial protein; also called huCD86-Fc; huCD86; not shown: Fc of the commercial chimera, not described
T2 sequence (looked up): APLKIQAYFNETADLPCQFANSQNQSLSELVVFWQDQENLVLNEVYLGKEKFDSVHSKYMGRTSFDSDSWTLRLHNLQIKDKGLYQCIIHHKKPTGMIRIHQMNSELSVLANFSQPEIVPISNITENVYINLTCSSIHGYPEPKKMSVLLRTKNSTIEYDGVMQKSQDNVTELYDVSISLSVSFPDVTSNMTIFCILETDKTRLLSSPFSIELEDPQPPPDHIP


Legend:
[1] = target: T1, recombinant human CD80-Fc chimera …; assay: ELISA: biotinylated cCTLA-4 ECD on plate-bound human CD80-Fc, streptavidin-AP, no antibody
[2] = target: T2, recombinant human CD86-Fc chimera …; assay: ELISA: biotinylated cCTLA-4 ECD on plate-bound human CD86-Fc, streptavidin-AP, no antibody
[3] = target: T3, human complement C1q (in normal human complement serum) (human, UniProt P02745 23-245; P02746 28-253; P02747 29-245); assay: complement fixation ELISA: antibody on captured cCTLA-4, human serum complement, anti-human C1q HRP
T3 construct: also called human serum complement
T3 sequence (P02745 23-245 limits assumed, chain 1 of 3): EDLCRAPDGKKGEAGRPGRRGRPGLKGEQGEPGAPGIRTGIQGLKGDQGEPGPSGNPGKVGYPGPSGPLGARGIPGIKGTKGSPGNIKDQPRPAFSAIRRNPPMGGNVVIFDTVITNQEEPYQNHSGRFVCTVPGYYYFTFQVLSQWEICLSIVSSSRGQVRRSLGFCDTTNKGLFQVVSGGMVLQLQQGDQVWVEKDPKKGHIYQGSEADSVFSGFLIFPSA
T3 sequence (P02746 28-253 limits assumed, chain 2 of 3): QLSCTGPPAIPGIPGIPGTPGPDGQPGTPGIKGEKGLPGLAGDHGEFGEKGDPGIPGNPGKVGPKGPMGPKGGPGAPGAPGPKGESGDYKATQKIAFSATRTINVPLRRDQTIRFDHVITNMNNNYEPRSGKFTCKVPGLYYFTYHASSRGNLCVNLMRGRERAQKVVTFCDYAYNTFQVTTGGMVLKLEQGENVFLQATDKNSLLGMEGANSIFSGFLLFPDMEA
T3 sequence (P02747 29-245 limits assumed, chain 3 of 3): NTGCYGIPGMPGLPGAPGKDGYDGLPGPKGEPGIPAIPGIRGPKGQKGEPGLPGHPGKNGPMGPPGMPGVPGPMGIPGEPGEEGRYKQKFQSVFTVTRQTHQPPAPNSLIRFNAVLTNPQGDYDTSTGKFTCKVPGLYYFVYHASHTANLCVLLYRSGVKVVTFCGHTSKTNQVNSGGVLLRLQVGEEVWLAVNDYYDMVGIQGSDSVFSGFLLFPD

| binding result [1] | binding result [2] | binding result [3] | Binder |
| --- | --- | --- | --- |
| binds | binds |  | recombinant canine CTLA-4 extracellular domain protein (receptor, not shown: small tags and cut ends, biotin on the Avi tag (BirA ligase) in the ELISA, panning and interaction assays, Cloned into pFUSE containing an HA tag, made in 293T cells; The SPR analyte is called soluble cCTLA-4 ECD, and biotinylation is not mentioned there; also called cCTLA-4; cCTLA-4 ECD) KGMHVAQPAVVLASSRGVASFVCEYGSSGNAAEVRVTVLRQAGSQMTEVCAATYTVEDELAFLDDSTCTGTSSGNKVNLTIQGLRAMDTGLYICKVELMYPPPYYVGMGNGTQIYVIDPEPCPDSD |
|  |  | no binding (tested: 10 ug/ml antibody) | A1mut2 full-length canine IgG4 (IgGD) mAb, HA-tagged (antibody, also called A1mut2 IgGD) heavy: EVQLVETGGDLVKPGGSLRLSCVASGFSFSSYAMNWVRQAPEKGLQLVGGINSGGSSTYYTDAVKGRFTISRDNAKNTVYLQMNSLRAEDTAVYYCAISNWAYWGQGTLVTVSSASTTAPSVFPLAPSCGSTSGSTVALACLVSGYFPEPVTVSWNSGSLTSGVHTFPSVLQSSGLYSLSSMVTVPSSRWPSETFTCNVVHPASNTKVDKPVPKESTCKCISPCPVPESLGGPSVFIFPPKPKDILRITRTPEITCVVLDLGREDPEVQISWFVDGKEVHTAKTQPREQQFNSTYRVVSVLPIEHQDWLTGKEFKCRVNHIGLPSPIERTISKARGQAHQPSVYVLPPSPKELSSSDTVTLTCLIKDFFPPEIDVEWQSNGQPEPESKYHTTAPQLDEDGSYFLYSKLSVDKSRWQQGDPFTCAVMHEALQNHYTDLSLSHSPGKGGGSGGGSYPYDVPDYA light: QAVLNQPASVSGSLGQRVTISCTGSSSDIGKSYVAWYQQLPGTGPRTLINVDGNRASGVPDRFSVSRSGNTATLTISGLQAEDEADYHCSSWDWSLHTYVFGSGTQLTILGQPKASPSVTLFPPSSEELGANKATLVCLISDFYPSGVTVAWKADGSPITQGVETTKPSKQSNNKYAASSYLSLTPDKWKSHSSFSCLVTHEGSTVEKKVAPAECS |
